Experiment [1] concerns the target T1, recombinant human VEGFR2 extracellular domain (human, UniProt P35968 20-764).
T1 construct: extracellular domain; Bought (Calbiochem); also called KDR; Flk-1
Put plainly: yeast surface display of individual clones, soluble VEGFR2.

Experiment [2] concerns the target VEGFR2 and αvβ3 integrin on HUVEC. The experiment in a line: flow cytometry titration on HUVEC (VEGFR2 and αvβ3 integrin), anti-FLAG detection.
In experiment [3] the target is U87MG human glioblastoma cells. Put plainly: flow cytometry titration on U87MG cells, anti-FLAG detection. Background: Flow cytometry measures light scatter and fluorescence of single cells or particles in a stream.
Experiment [4] addresses VEGFR2 and αvβ3 integrin on SVR angiosarcoma cells (murine). Put plainly: flow cytometry titration on SVR murine angiosarcoma cells (VEGFR2 and αvβ3 integrin), anti-FLAG detection.
For experiment [5], the target named is VEGFR2 and αvβ3 integrin on HUVEC. The experiment in a line: cell-based or functional assay.

T1 sequence (P35968 20-764): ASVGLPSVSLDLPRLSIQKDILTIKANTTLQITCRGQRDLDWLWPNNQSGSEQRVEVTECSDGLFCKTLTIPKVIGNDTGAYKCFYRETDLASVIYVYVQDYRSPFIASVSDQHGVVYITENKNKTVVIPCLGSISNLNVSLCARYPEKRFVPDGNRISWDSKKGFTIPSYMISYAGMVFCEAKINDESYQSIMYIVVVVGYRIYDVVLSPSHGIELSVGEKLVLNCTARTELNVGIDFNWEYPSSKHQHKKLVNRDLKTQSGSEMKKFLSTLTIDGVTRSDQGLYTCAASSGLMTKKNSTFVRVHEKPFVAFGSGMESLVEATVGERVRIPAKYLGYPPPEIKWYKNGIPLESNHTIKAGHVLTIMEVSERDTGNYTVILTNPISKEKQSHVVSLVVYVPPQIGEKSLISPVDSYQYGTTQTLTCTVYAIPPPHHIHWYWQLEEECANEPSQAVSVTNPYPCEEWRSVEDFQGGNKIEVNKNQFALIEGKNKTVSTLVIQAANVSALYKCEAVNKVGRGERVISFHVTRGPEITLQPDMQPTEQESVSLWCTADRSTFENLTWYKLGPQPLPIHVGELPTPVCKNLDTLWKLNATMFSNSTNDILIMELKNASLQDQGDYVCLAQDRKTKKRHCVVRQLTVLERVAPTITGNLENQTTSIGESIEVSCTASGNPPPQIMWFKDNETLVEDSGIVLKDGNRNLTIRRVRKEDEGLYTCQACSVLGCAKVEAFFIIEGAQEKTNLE

B1: scVEGFrgd-7B-K (ligand)
chain: EVVKAMDVYQRSYCHPIETLVDILQEYPDEIEYIFKPSCVPLMRCGGCCNDAGLECVPTEESNITMQIMRIKPYQGQHIGEMSFLQHNKCECRPKKDGSTSGSGKSSEGKGEVVRFMDVYQRSYCHPIETLVDIFQEYPDEIEYAFKPSCVPLMRCGGCCNHEGLECVPTEESNITMQIMRPHDRGDAGVHIGEMSFLQHNKCECRPKED
notes: built from the parts; F17A, E64A and I46A are kept because the RGD libraries were made from scVEGFmut
Consider B1, for which, in experiment [1], the binding result is given as “binds”.

B2: scVEGFrgd-7B-A (ligand)
chain: EVVKAMDVYQRSYCHPIETLVDILQEYPDEIEYIFKPSCVPLMRCGGCCNDAGLECVPTEESNITMQVMRIKPYRGQHIGEMSFLQHNKCECRPKKDGSTSGSGKSSEGKGEVVKFMDVYQRSYCHPIETLVDIFQEYPDEIEYAFKPSCVPLMRCGGCCNNEGLECVPTEESNITMQIMRPHDRGDAGVHIGEMSFLQHNKCECRPRKD
notes: as for B1
As to B2, in experiment [1], the binding result is given as “binds”.

B3: scVEGFrgd-7B-C (ligand)
chain: EVVKAMDVYQGSYCHPIETLVDILQEYPDEIEYIFKPSCVPLMRCGGCCNNAGLECVPTEESNITMQIMRIKPYQGQHIGEMSFLQHNKCECRPKKGGSTSGSGKSSEGKGEVVKFMDVYQRSYCHPIETLVDIFQEYPDEIEYAFKPSCVPLMRCGGCCNHEGLECVPTEESNITMRIMRPHDRGDAGVHIGEMSFLQHNKCECRPKRD
notes: as for B1
For the molecule B3, in experiment [1], the binding result is “binds”.

B4: scVEGFrgd-7H (ligand)
chain: EVVKAMDVYQRSYCHPIETLVDIFQEYPDEIEYIFKPSCVPLMRCGGCCNDAGLECVPTEESNITMQIMRIKPHQGQHIGEMSFLQHNKCECRPKKDGSTSGSGKSSEGKGEVVKFMDVYQRSYCHPIETLVDIFQEYPDEIEYAFKPSCVPLMRCGGCCNDEGLECVPTEESNITMQIMRPGGRGDSAYHIGEMSFLQHNKCECRPKKDTR
Broadly, the Kd is a measure of binding affinity in units of concentration. Low values mean higher affinity, high ones lower affinity. With B4, the Kd in experiment [2] is 12 nM; in experiment [3], 15.6 nM; in experiment [4], 18 nM.

B5: scVEGFrgd-7P (ligand)
chain: EVVKAMDVYQRSYCHPIETLVDIFQEYPDEIEYIFKPSCVPLMRCGGCCNDAGLECVPTEESNITMQIMRIKPHQGQHIGEMSFLQHNKCECRPKKDGSTSGSGKSSEGKGEVVKFMDVYQRSYCHPIETLVDIFQEYPDEIEYAFKPSCVPLMRCGGCCNDEGLECVPTEESNITMQIMRPASRGDSPPHIGEMSFLQHNKCECRPKKDTR
For B5, the Kd in experiment [2] is 45 nM; in experiment [3], 29 nM; in experiment [4], 31 nM.

B6: scVEGFrgd-7I (ligand)
chain: EVVKAMDVYQRSYCHPIETLVDIFQEYPDEIEYIFKPSCVPLMRCGGCCNDAGLECVPTEESNITMQIMRIKPHQGQHIGEMSFLQHNKCECRPKKDGSTSGSGKSSEGKGEVVKFMDVYQRSYCHPIETLVDIFQEYPDEIEYAFKPSCVPLMRCGGCCNDEGLECVPTEESNITMQIMRPSVRRGDSPASHIGEMSFLQHNKCECRPKKDTR
Take B6: the Kd came out at 6 nM in experiment [2], 13.9 nM in experiment [3] and 37 nM in experiment [4]. The inhibition of VEGF-induced autophosphorylation of VEGFR-2 in HUVEC, in the presence of vitronectin in experiment [5] turned out to be 80%.

Source of the values: US20160039896A1 (Stanford University, published 2016).
